Test results: publication PMC7144899

Legend:
[1] = target: His-AnaRneN (N-terminal catalytic domain of Anabaena RNase E) (Anabaena PCC 7120); experiment: ITC
[2] = target: AnaRne-GFP (RNase E tagged with GFP at the C-terminus, in situ) (Anabaena PCC 7120) (UniProt Q8YP69); experiment: FRET or BRET
UniProt Q8YP69, sequence (Q8YP69 whole entry): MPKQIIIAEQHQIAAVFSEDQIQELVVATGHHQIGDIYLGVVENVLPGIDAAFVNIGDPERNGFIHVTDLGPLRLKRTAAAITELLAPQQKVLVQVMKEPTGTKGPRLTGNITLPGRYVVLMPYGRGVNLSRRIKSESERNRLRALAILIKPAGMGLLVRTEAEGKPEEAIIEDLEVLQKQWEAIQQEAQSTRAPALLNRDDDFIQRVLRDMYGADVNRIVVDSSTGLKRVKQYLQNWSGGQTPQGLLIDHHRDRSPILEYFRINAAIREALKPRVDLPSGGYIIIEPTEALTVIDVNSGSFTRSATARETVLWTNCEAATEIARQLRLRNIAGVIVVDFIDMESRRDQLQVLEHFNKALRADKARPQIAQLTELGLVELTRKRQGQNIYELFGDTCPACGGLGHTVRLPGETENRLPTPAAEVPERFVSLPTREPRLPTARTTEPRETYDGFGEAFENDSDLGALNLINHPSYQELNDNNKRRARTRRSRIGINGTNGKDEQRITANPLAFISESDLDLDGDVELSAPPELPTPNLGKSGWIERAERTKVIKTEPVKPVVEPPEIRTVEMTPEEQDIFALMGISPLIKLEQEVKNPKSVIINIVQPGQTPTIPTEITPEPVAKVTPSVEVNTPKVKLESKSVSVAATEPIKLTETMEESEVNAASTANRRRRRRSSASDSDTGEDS

## Alr1240-Strep (Alr1240 with a C-terminal Strep tag fusion) (enzyme)
[1]
  Kd: 2770 nM
  stoichiometry N: 1

## AnaRnb-BFP (RNase II tagged with BFP at the C-terminus, in situ) (enzyme)
[2]
  FRET efficiency: 0.7
